B1: 单抗PGI_1H10 (VHH)
VHH: QVQLVQSGGGLVQAGGSLRLSCVVSGFNFSSFDRYTMSWVRQIPGKGLEWVSAINGGGIKTAYADSVKGRFTISRDNAKNTVYLQMNDLKPADTAVYYCTFTRWLVRGDYWGQGTQVTVSS
B2: 单抗PGI_2F1 (VHH)
VHH: QVQLVESGGGLVQTGDSLKLSCLASGRTFSSRAMGWFRQAPGKEREFVAAISTSGVLKYYAPSVKGRFTISRDNAKNTMYLEMNSPEPEDTAVYYCAANGPPFGAYWWPTAREYDAWGQGTQVTVSS
B3: 单抗PGI_1G9 (VHH)
VHH: QVQLVQSGGGSAHLGGSLRLSCAASGFIFSDYYMAWVRQAPGKEREWVSEINTSGRTYYADSVKGRFTISRDNAKNTLYLQMDSLKPEDTAVYYCYVHRSSIFTNREYWGQGTQVTVSS

3 molecules from CN114591436A (BIOLOGICAL ISLAND LABORATORY; UNIV SCIENCE AND TECHNOLOGY …, dated 2022) can be followed below.

For the assay, the target named is T1, 胃蛋白酶原I (Pepsinogen I) (Homo sapiens (Human), UniProt P0DJD7 63-388, limits assumed).
T1 construct: also called PGI; PG I
T1 sequence (P0DJD7 63-388 limits assumed): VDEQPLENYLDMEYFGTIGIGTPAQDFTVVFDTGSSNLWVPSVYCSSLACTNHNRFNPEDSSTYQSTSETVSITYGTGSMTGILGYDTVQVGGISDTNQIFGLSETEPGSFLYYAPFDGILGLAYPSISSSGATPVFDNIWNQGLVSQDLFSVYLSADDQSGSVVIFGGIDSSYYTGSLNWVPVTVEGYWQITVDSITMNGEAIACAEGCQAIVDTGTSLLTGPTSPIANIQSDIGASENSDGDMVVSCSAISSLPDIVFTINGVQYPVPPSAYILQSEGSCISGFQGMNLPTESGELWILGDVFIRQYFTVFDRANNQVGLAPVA
The assay can be described thus: ELISA, VHH-pIII in bacterial culture supernatant incubated with PGI antigen; kd derived from binding strength. A general note: ELISA stands for enzyme-linked immunosorbent assay.
As for B1, binding was put at a Kd of 123 nM. In other words, the sub-micromolar range. To B2 belongs 404 nM; to B3, 1030 nM.
